Assay: yeast display, Sf9 membrane polyspecificity reagent, FACS + sequencing; frameworks hold sequencing errors
Outline: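 A nanobody's polyreactivity label depends on the gate it was sorted from. Yeast display cells were stained with 10% biotinylated, detergent-solubilized Sf9 membrane reagent for 1 hour at 4 °C, enriched on streptavidin microbeads and sorted by FACS. The low and high (top ~1%) gates were set on anti-HA fluorescence for expression and streptavidin fluorescence for reagent binding.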

Sequence | polyreactivity (PSR sort gate)
QVQLVESGGGLVQAGGSLRLSCAASGNIFTSNAMGWYRQAPGKERELVAAITSGGSTYYADSLKGRFTISRDNAKNTVYLQMISLKPEDTAVYYCATLRRPHLRPYYYWGQGTQVTVSS | high polyreactivity
QVQLVESGGGLVQAGGSLRLSCAASGNIFTTYAMGWYRQAPGKERELVAAISRSGGRTNYADSVKGRFTISRDNAKNTVYLQLNSLKPEDTAVYYCAADGVPGRAVDYEYWGQGTQVTVSS | high polyreactivity
QVQLVESGGGLVQAGGSLRLSCAASGNIFVAYAMGWYRQAPGKEREMVAAISSRGGRTYYADSVKGRFTISRDNAKNTVYLQMNSLKPEDTAVYYCATDVGYYRKYEYYYWGQGTQVTVSS | high polyreactivity
QVQLVESGGGLVQAGGSLRLSCAASGNIFVFYVMGWYRQAPGNEREFVASFSSTGNTYYADSVKGRFTISRDNAKNTVYLQLNSLKPEDTAVYYCAADSHQNVSGWLRWPRMDYWGQGTQVTVSS | low polyreactivity
QVQLVESGGGLVQAGGSLRLSCAASGNIFVNYAMGWYRQAPGKERELVASINYNGGNTYYADSVKGRFTISRDNAKNTVYLQMNSLKPEDTAVYYCAKDGGGLLRWYTDEYDYWGQGTQVTVSS | low polyreactivity
QVQLVESGGGLVQAGGSLRLSCAASGNIFVRYSKGWYRQAPGKERELVAVISSGGSTNYADSVKGRFTISRDNAKNTVYLQMNSLKPEDSAVYYCARKYYSQAISSRKYGYWGQGTQVTVSS | high polyreactivity
QVQLVESGGGLVQAGGSLRLSCAASGNIFVTYDMGWYRQAPGKEREMVASISWNGGSTHYADSVKGLFTISGDNAKYSVYLQMNSRKPEDTAVYYCAAEYWTSYADYRYDYWGQGTQVTVSS | low polyreactivity
QVQLVESGGGLVQAGGSLRLSCAASGNIFYAYDMGWYRQAPGKERELVAAITNGDSTDYADSVKGRFTISRENAKNTVYLQMNSLKPEDTAVYYCNADYLPAPWALGGSQYDYCGQGTQVTVSS | low polyreactivity
QVQLVESGGGLVQAGGSLRLSCAASGNIFYGYAMGWYRQAPGKERELVAAITSSGGGTSYADSVKGRFTISRDNAKNTVYLQMNSLKPVDTAVYYCTKRPWYLSDYWGQGTQVTVSS | low polyreactivity
QVQLVESGGGLVQAGGSLRLSCAASGNIFYKNTMGWYRQAPGKERELVAAISVSGGGTYYADSVKGRFTISRDNAKNTVYLQMNSLKPEDTAVYYCAASHRRSGGQPRYYYWGQGTQVSVSS | high polyreactivity
QVQLVESGGGLVQAGGSLRLSCAASGNIFYQYAMGWYRQAPGKEREFVAAISISGTSTYADSVKGRFTISRDNAKNTVYLQMNSLKPEDTAVYWGQGTQVTVSS | low polyreactivity
QVQLVESGGGLVQAGGSLRLSCAASGNIFYYNAMGWYRQAPGKERELVAAISDSGSSTHYADSVKGRFTISRDNAKNTVYLQMNSLKPEDTAVYYCGARATTNRFRYYYWGQGTQVTVSS | high polyreactivity
QVQLVESGGGLVQAGGSLRLSCAASGNIFYYYAMGWYRQAPGKERELVATNTSGGSTNYADSVKGRFTISRDNAKNTVYLQMNSLKPEDTAVYYCAADRRRTYYWLSSYFEGYYWGQGTQVTVSS | low polyreactivity
QVQLVESGGGLVQAGGSLRLSCAASGNIIAYYAMGWSRQPPGKDRELVAAITDSGGNTFYADSVKGRFTISRDNAKNSVFLQMNSLKPEDTAVYYCAADPDCWGFVYPRYDYWGQGTQVTVSS | low polyreactivity
QVQLVESGGGLVQAGGSLRLSCAASGNIIVENAMGWYRQAPAKERELVAVSTSGTSTYADSVKGRFTISRDNAKITVYLQMNSLKPEDTAVYYCNARRINTLYDYWGQGTQVTVSS | low polyreactivity
QVQLVESGGGLVQAGGSLRLSCAASGNILGYNAMGWYRQAPGKERELVAAITQSGGSTYYADSVKGRFTISRDNAKNTVDLQMNSLIPEDTAVYYCAAVGYYYSALDMDYWGQGTQVTVSS | low polyreactivity
QVQLVESGGGLVQAGGSLRLSCAASGNILLTNAMGWYRQAPGKEREFVAAIRWSGSRTYYADSVKGRFTISRDNAKNTVYLQMNSLKPEDTAVYYCAVRAVWPVSYGYWYYYWGQGTQVTVSS | high polyreactivity
QVQLVESGGGLVQAGGSLRLSCAASGNIRNYGMGCSRQAPGKERELVDAISSGGVRTYYADSVKGRFTLSRDNAKNTVYLQMNSLKPEETAVYYCAVASWYYLYPPGYRAITHDYWGQGTQVTVSS | high polyreactivity
QVQLVESGGGLVQAGGSLRLSCAASGNIYNYAMGWYIQAPGKERELVAAIRSSDGSTYYADSVKGRFTISRDNAKNTVYLQMNSLKPEDTAVYDCARRTRRTSTYYYYGSRYYYWGQGTQVTVSS | high polyreactivity
QVQLVESGGGLVQAGGSLRLSCAASGNTFAQYGMGWYRQAPGKEREFVAAITRRGGSTYYADSVKGRFTISRDNAKNTVYLQMNSLKPEDTAVFYCAAGHYRRRYPSYGLQEYDYWGQGTQVTVSS | high polyreactivity
QVQLVESGGGLVQAGGSLRLSCAASGNTFAVNAMGWYRQAPGKERELVAAISRSGVTTRYADSVKGRFTISRDNAKNTVYLLMNSLKPEDTAVYYCNADPRLRQTRDYWGQGTQVTVSS | high polyreactivity
QVQLVESGGGLVQAGGSLRLSCAASGNTFDGYDMGWYRQAPGNKRELVAAITNTGASTYYADSVKGRCTISRDNAKNTVYLQMNSLKPEDTAVYYCNAQDSYPEDRHGMSYWGQGTQVTVSS | low polyreactivity

Sequence | polyreactivity (PSR sort gate)
QVQLVESGGGLVQAGGSLRLSCAASGNTFDPNAMGWYRQAPGKEREFVAAISTIGSSTYYADSVKGRFTISRDNAKNTVYLQMNSLKPEDTAVYYSNADYFQDRLDYWGQGTQVTVSS | low polyreactivity
QVQLVESGGGLVQAGGSLRLSCAASGNTFDRYAMGWYRQAPGKERELVAAITRSGGNTYYADSVKGRFTISRDNAKNTVYLQMNSLKPEDTAVYYCAAYFFPYYTGYGYWGQGTQVTVSS | high polyreactivity
QVQLVESGGGLVQAGGSLRLSCAASGNTFGIYAMGWYRQAPGKERELVAAISSGTSTNYADSVKGRFTISRDNAKNTVYLQMNSLKPEDTAVYYCNADDQYQDVREDFWGQGTQVTVSS | low polyreactivity
QVQLVESGGGLVQAGGSLRLSCAASGNTFGKYAMGWYRHAPGKERELVAAISKSSGSTYYADSVKGRFTLSRDNAKNTVYLQMNSLKPEDTAVYYCAACWYSYRYSRLGFGSWGQGTQVTVSS | high polyreactivity
QVQLVESGGGLVQAGGSLRLSCAASGNTFGNYGMGWYRQAPGKEREFVAAITSRGTSTYYADSVKGRFTISRDNAKNTVYLQMNSLKPEDTAVYYCNARPRYKYPRYDYWGQGTQVTVSS | high polyreactivity
QVQLVESGGGLVQAGGSLRLSCAASGNTFGTYVMGWYRQAPGKERELVAAISQSGGSTDYADSVKGRFTISRYNAKNTVYLQMNSLKPEDTAVYYCATDGHYLYNRKYYRLTRYYYWGQGTQVTVSS | low polyreactivity
QVQLVESGGGLVQAGGSLRLSCAASGNTFHSNAMGWYRQAPGKERELVAAITPSDGDTYYADSVKGRFTISRDIAKNTVYLQMNSLKPEDTAVYYCAADPEPSYRFDYWGQGTQVTVSS | low polyreactivity
QVQLVESGGGLVQAGGSLRLSCAASGNTFKDYTMGWFRQAPGTERELVASINSGGSTNYADSVKGRFTISRDNAKNTVYLQMNSLKPEDTAVYDCAKRAWSDYNPIDYWGQGTQVTVSS | low polyreactivity
QVQLVESGGGLVQAGGSLRLSCAASGNTFKYYAMGWYRQAPGKERVLVATISRTAGSTYYADSVKGRFTISRDNAKNTVYLQMNSLKPEDTAVYYCNKDRGHPFKYDYWGQGTQVTVSS | low polyreactivity
QVQLVESGGGLVQAGGSLRLSCAASGNTFLPYAMGWYRQPPGKERELVAAISWSGGSTYYADSVKGRFTISRDTAKNTVYLQMNSLKPEDTAVYYCAATPTRRYYRQSAYDYWGQGTQVTVSS | high polyreactivity
QVQLVESGGGLVQAGGSLRLSCAASGNTFLVNVMGWYRQAPGKERELVASITINDGSTYYADSVKGRFTISRDNAKNTVYLQMNSLKPDDTAVYYCAADGVVPGRFFWPAHEYDYWGQGTQVTVSS | low polyreactivity
QVQLVESGGGLVQAGGSLRLSCAASGNTFLYYAMGWYRQAPGKEMELVASINLSDGCTYYADSVKGRFTISRDNAKNTVYFQMTSLKPEDTAVYYCAAVFGGYTIYDYWGQGTQVTVSS | low polyreactivity
QVQLVESGGGLVQAGGSLRLSCAASGNTFNSYAMGWYRQAPGKERELVAAIRWRGTSTYYADSVKGRFTISRDTAKNTVYLQMNSLKPEDTAVYYCAADVVRSNFYGTFLYDYDYWGQGTQVTVSS | low polyreactivity
QVQLVESGGGLVQAGGSLRLSCAASGNTFPFNAMGWYRQAPGKERELVAAISRGGSTYYADSVKGRFTISRDNAKNTVYLQMISLKPEDTAVYYCAVSAGKRRLDYWGQGTQVTVSS | high polyreactivity
QVQLVESGGGLVQAGGSLRLSCAASGNTFPRYAMGWYRQAPGKERELVASISWSGGSTYYADSVKGRFTISRDNAKNTVYLQMNSLKPEDTAVYYCNARRAYRAWYYPYDYWGQGTQVTVSS | high polyreactivity
QVQLVESGGGLVQAGGSLRLSCAASGNTFPSYVMGWYRQAPGKERELVAAINRGGGTYYADSVKGRFTISRDNAKNTVYLQMNSLKPEVTAVYYCAVRDQRHPYMDYWGQGTQVTVSA | low polyreactivity
QVQLVESGGGLVQAGGSLRLSCAASGNTFPTYAMGWYRQAPGKERELVAAISRRGGSTYYADSVKGRFTISRDNAKNTVYLQMNSLKPEDTAVYYCARPRRSVNVYKYIYNYWGQGTQVTVSS | high polyreactivity
QVQLVESGGGLVQAGGSLRLSCAASGNTFPVYAMGWYRQASGKERELVATITSGGSTNYADSVKGRFTISRDNAKNTVYLQMNSLKPEDTAVYYCARRAVYSKRRYDYWGQVTQVTVSS | low polyreactivity
QVQLVESGGGLVQAGGSLRLSCAASGNTFQRYTMGWYRQAPGKERELVAAITWSGGNTYYADSVKGRFTISRDNAKNTVYLQMNSLKPEDTAVYYCATYYWLGLSLYDYWGQGTQVTVSS | low polyreactivity
QVQLVESGGGLVQAGGSLRLSCAASGNTFRDYAMGWYRQAPGKERELVAAITSAGARTYYADSVKGRFTISRDNAKNTVYLQMNSLKPEDTAVYYCAADWSGYYTYDYWGQGTQVTVSS | low polyreactivity
QVQLVESGGGLVQAGGSLRLSCAASGNTFRFYAMGWYRQAPGKERELVADITRGGSTNYADSVKGRFTISRDNAKNTVYLQMNSLKPEDTAVYYCAARPWYYTSSFYYGRYDYWGQGTQVTVSS | high polyreactivity
